Experiments:
AD-COP1 = AD-COP1 (UniProt P43254); test: yeast three-hybrid (Y3H) competition assay (BD-HY5, AD-COP1); conditions: read off a plot
E-COP1 = E-COP1 (UniProt P43254); test: mammalian three-hybrid (M3H) assay, GFP co-expressed as control third protein; conditions: CHO-K1 cells, 24 h, parent: est. 150, read off a plot
Chain of E-COP1 (P43254 whole entry): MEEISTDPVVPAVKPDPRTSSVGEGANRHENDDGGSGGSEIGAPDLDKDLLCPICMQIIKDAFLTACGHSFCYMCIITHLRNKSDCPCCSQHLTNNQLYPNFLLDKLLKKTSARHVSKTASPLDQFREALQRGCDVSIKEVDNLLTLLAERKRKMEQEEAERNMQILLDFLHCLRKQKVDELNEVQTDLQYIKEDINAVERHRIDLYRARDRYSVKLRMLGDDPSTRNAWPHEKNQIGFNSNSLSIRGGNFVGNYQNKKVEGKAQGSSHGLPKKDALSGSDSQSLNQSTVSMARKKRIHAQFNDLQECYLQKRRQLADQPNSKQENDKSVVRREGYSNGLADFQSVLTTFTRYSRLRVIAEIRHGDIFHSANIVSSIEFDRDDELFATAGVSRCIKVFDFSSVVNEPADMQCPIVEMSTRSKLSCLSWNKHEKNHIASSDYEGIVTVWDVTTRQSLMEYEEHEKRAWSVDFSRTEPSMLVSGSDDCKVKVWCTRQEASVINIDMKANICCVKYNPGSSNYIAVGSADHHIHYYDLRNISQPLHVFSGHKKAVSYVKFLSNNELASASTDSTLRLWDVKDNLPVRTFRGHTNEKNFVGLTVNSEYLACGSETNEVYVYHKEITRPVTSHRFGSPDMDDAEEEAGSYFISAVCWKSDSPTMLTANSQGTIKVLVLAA

Chain of AD-COP1 (P43254 whole entry): as above

Row | Substance | other: COP1-HY5 interaction signal (β-galactosidase activity) with the CCT1 variant as bridge protein (AD-COP1; 1 day in darkness, followed by exposure to 50 μmol m−2 s−1 blue light for 1 day, no-bridge control est. 5.7, higher signal = less displacement of HY5 by the …, parent: est. 1.7) | other: COP1-HY5 interaction signal (β-galactosidase activity) with the CCT1 variant as bridge protein (AD-COP1; darkness for 2 days, no-bridge control est. 8.5, higher signal = less displacement of HY5 by the CCT1 variant, parent: est. 3.1) | response (Au (SEAP/sNLuc)) (E-COP1; blue light (10 μmol m−2 s−1)) | response (Au (SEAP/sNLuc)) (E-COP1; darkness)
1 | CCT1 (yeast three-hybrid 'bridge protein') V548A; P549A | 6.9 Miller units | 7.8 Miller units |  | 
2 | HY5 fused to the herpes simplex virus-derived transactivation domain (VP16) (from UniProt O24646) HY5-VPAA (VP motif to AA; positions not printed) |  |  | 7 | 5

— paper PMC11886768 (2025)
